Among the data in patent publication US20030113774A1 are β-galactosidase values, retold here.

For assay [1], the target named is pGal4-AD-p53-2 (p53 clone 2 from the mouse embryonic cDNA library, fused to Gal4-AD) (mouse) (UniProt P02340). Briefly: yeast two-hybrid, quantitative liquid β-galactosidase assay.
The target in assay [2] is pGal4-AD-p53-1 (p53 clone 1 from the mouse embryonic cDNA library, fused to Gal4-AD) (mouse) (UniProt P02340). The assay is described as above.
The target of assay [3] is pGal4-AD-SV40 (control plasmid, SV40 protein fused to Gal4-AD) (UniProt P03070). The assay is described as follows: yeast two-hybrid, quantitative liquid β-galactosidase assay (positive control pair).
Chain of UniProt P03070 (P03070 84-708): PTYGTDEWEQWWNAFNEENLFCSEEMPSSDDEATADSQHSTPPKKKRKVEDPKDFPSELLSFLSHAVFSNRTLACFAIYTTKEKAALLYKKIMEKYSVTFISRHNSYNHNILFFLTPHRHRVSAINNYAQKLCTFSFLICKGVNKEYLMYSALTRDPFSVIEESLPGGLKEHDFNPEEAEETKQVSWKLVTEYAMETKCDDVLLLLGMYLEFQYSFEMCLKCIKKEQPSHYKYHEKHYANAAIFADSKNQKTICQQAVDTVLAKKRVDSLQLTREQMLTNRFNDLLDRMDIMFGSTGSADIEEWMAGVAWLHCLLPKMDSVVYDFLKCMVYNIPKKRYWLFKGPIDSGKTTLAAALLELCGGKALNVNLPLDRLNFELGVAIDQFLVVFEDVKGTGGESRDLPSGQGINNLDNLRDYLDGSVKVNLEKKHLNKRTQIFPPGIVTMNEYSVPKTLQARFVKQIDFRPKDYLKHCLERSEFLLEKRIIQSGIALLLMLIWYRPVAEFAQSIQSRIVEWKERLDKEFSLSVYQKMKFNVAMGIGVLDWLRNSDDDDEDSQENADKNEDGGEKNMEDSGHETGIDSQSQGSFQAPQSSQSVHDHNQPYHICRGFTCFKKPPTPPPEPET

On to “pGal4-BD-p40 bait fusion protein comprised of the Gal4 binding domain and a p40 protein (from UniProt P04386 1-147)”, for which the β-galactosidase is 31.8 nmol/min/mg in assay [1] and 33.6 nmol/min/mg in assay [2]. As to “pGal4-BD-p53 (control plasmid, p53 fused to the Gal4 binding domain) (from UniProt P04386 1-147)”, the β-galactosidase in assay [3] was 65.3 nmol/min/mg.
